According to the supplement of paper PMC9112550, “Optimization of the antimicrobial peptide Bac7 by deep mutational scanning” (BMC Biology, 2022):

Test system: Escherichia coli TOP10
Experiment: shrunken log2 fold change of peptide-encoding DNA abundance (4.5 h post-induction vs induction); higher = less antimicrobial activity (less host growth inhibition)
Conditions: time post-induction: 4.5 h; library: site-saturation at positions 5, 18, 19, 20
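Also: peptides expressed intracellularly from a pBAD plasmid library in pooled LB shake-flask culture, induced with 0.3% L-arabinose, DNA abundance read by NGS, three biological replicates, DESeq2 with apeglm shrinkage.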

Sequence | shrunken log2 fold change
RRIRTRPPRLPRPRPRPYWAPRP | -0.0649
RRIRSRPPRLPRPRPRPFDFPRP | -0.241
RRIRDRPPRLPRPRPRPMHDPRP | 0.122
RRIRQRPPRLPRPRPRPGPTPRP | 0.0273
RRIRLRPPRLPRPRPRPADYPRP | -0.0944
RRIRKRPPRLPRPRPRPNGAPRP | 0.168
RRIRSRPPRLPRPRPRPLLNPRP | -0.117
RRIRIRPPRLPRPRPRPDKYPRP | -0.189
RRIRHRPPRLPRPRPRPHDFPRP | -0.0633
RRIRPRPPRLPRPRPRPPWPPRP | 0.688
RRIRERPPRLPRPRPRPCEQPRP | -0.0101
RRIRMRPPRLPRPRPRPWMPPRP | 0.0554
RRIRVRPPRLPRPRPRPFYEPRP | -0.453
RRIRSRPPRLPRPRPRPQIYPRP | -0.354
RRIRKRPPRLPRPRPRPQMTPRP | 0.0443
RRIRPRPPRLPRPRPRPPLVPRP | 0.389
RRIRERPPRLPRPRPRPEFAPRP | 0.0144
RRIRNRPPRLPRPRPRPRYGPRP | -0.0289
RRIRYRPPRLPRPRPRPHSWPRP | -0.69
RRIRHRPPRLPRPRPRPRMIPRP | -8.79e-05
RRIRKRPPRLPRPRPRPGICPRP | 0.0428
RRIRGRPPRLPRPRPRPHASPRP | 0.585
RRIRERPPRLPRPRPRPIEFPRP | 0.101
RRIRRRPPRLPRPRPRPYGAPRP | -0.171
RRIRGRPPRLPRPRPRPVYAPRP | 0.0566

Sequence | shrunken log2 fold change
RRIRARPPRLPRPRPRPLMWPRP | 0.481
RRIRLRPPRLPRPRPRPNCNPRP | -0.535
RRIRARPPRLPRPRPRPQVAPRP | 0.591
RRIRIRPPRLPRPRPRPKQFPRP | -0.328
RRIRRRPPRLPRPRPRPRGNPRP | 0.524
RRIRERPPRLPRPRPRPCWIPRP | -0.594
RRIRYRPPRLPRPRPRPRMWPRP | 0.0356
RRIRIRPPRLPRPRPRPIYEPRP | -0.107
RRIRCRPPRLPRPRPRPPELPRP | 0.643
RRIRARPPRLPRPRPRPRMKPRP | 0.457
RRIRLRPPRLPRPRPRPLWEPRP | 0.697
RRIRERPPRLPRPRPRPRMHPRP | 0.0795
RRIRWRPPRLPRPRPRPEYLPRP | -0.0854
RRIRTRPPRLPRPRPRPGMRPRP | 0.744
RRIRKRPPRLPRPRPRPKHHPRP | 0.122
RRIRWRPPRLPRPRPRPWWVPRP | 0.13
RRIRVRPPRLPRPRPRPGYRPRP | -0.203
RRIRSRPPRLPRPRPRPECTPRP | 0.169
RRIRNRPPRLPRPRPRPGVCPRP | 0.241
RRIRFRPPRLPRPRPRPEFMPRP | -0.109
RRIRARPPRLPRPRPRPNMPPRP | -0.0377
RRIRCRPPRLPRPRPRPLDFPRP | -0.175
RRIRQRPPRLPRPRPRPLNGPRP | -0.128
RRIRSRPPRLPRPRPRPKQLPRP | 0.0372
RRIRIRPPRLPRPRPRPWFDPRP | -0.184

Sequence | shrunken log2 fold change
RRIRQRPPRLPRPRPRPGRKPRP | 0.249
RRIRRRPPRLPRPRPRPAKWPRP | 0.123
RRIRVRPPRLPRPRPRPWDHPRP | -0.103
RRIRTRPPRLPRPRPRPYNFPRP | 0.0438
RRIRPRPPRLPRPRPRPLMLPRP | -0.21
RRIRRRPPRLPRPRPRPCSCPRP | -0.017
RRIRLRPPRLPRPRPRPNSWPRP | -0.0901
RRIRSRPPRLPRPRPRPQFSPRP | -0.152
RRIRTRPPRLPRPRPRPHDYPRP | -0.196
RRIRIRPPRLPRPRPRPLMWPRP | -0.115
RRIRGRPPRLPRPRPRPSNPPRP | 0.14
RRIRKRPPRLPRPRPRPLCVPRP | 0.247
RRIRCRPPRLPRPRPRPPWYPRP | -0.0833
RRIRSRPPRLPRPRPRPKPCPRP | 0.122
RRIRARPPRLPRPRPRPKHQPRP | 0.324
RRIRWRPPRLPRPRPRPSNNPRP | -0.446
RRIRERPPRLPRPRPRPCRNPRP | -0.269
RRIRMRPPRLPRPRPRPDFEPRP | 0.589
RRIRWRPPRLPRPRPRPCDNPRP | 0.0838
RRIRRRPPRLPRPRPRPDLMPRP | 2.63
RRIRGRPPRLPRPRPRPASFPRP | 0.345
RRIRTRPPRLPRPRPRPAWMPRP | 0.307
RRIRPRPPRLPRPRPRPWYYPRP | -0.102
RRIRDRPPRLPRPRPRPMAPPRP | 0.982
RRIRARPPRLPRPRPRPYCYPRP | -0.227

Sequence | shrunken log2 fold change
RRIRRRPPRLPRPRPRPGDVPRP | 0.249
RRIRVRPPRLPRPRPRPEMQPRP | 0.175
RRIRRRPPRLPRPRPRPKSQPRP | 0.104
RRIRPRPPRLPRPRPRPVNGPRP | 0.0391
RRIRYRPPRLPRPRPRPFFIPRP | -1.11
RRIRDRPPRLPRPRPRPFMMPRP | -0.265
RRIRCRPPRLPRPRPRPLPTPRP | 0.63
RRIRQRPPRLPRPRPRPYVAPRP | -0.713
RRIRTRPPRLPRPRPRPCADPRP | -0.0062
RRIRMRPPRLPRPRPRPDWNPRP | -0.0431
RRIRGRPPRLPRPRPRPDGYPRP | 0.222
RRIRVRPPRLPRPRPRPPCRPRP | 2.01
RRIRERPPRLPRPRPRPYRIPRP | -0.0789
RRIRCRPPRLPRPRPRPSWMPRP | 0.326
RRIRNRPPRLPRPRPRPLRVPRP | 0.896
RRIRSRPPRLPRPRPRPKDTPRP | -0.145
RRIRCRPPRLPRPRPRPCSYPRP | -0.895
RRIRTRPPRLPRPRPRPWDKPRP | -0.0249
RRIRIRPPRLPRPRPRPTQRPRP | 0.187
RRIRWRPPRLPRPRPRPIMVPRP | -0.0215
RRIRHRPPRLPRPRPRPPCGPRP | 0.176
RRIRNRPPRLPRPRPRPPMTPRP | 1.77
RRIRLRPPRLPRPRPRPGFFPRP | 0.0646
RRIRARPPRLPRPRPRPISRPRP | 0.354
RRIRFRPPRLPRPRPRPTDLPRP | 0.15

Sequence | shrunken log2 fold change
RRIRQRPPRLPRPRPRPFNPPRP | -0.077
RRIRVRPPRLPRPRPRPVPCPRP | -0.162
RRIRIRPPRLPRPRPRPAEQPRP | -0.0532
RRIRLRPPRLPRPRPRPVKEPRP | 0.0114
RRIRCRPPRLPRPRPRPDKIPRP | -0.24
RRIRHRPPRLPRPRPRPTCSPRP | 0.0782
RRIRCRPPRLPRPRPRPCVIPRP | -0.334
RRIRHRPPRLPRPRPRPMMKPRP | 0.0118
RRIRDRPPRLPRPRPRPKVRPRP | 0.00434
RRIRHRPPRLPRPRPRPFHAPRP | -0.0061
RRIRMRPPRLPRPRPRPCNFPRP | -0.415
RRIRIRPPRLPRPRPRPQMDPRP | -0.258
RRIRARPPRLPRPRPRPTTEPRP | 0.443
RRIRWRPPRLPRPRPRPNCTPRP | 0.0251
RRIRSRPPRLPRPRPRPQYPPRP | -0.157
RRIRIRPPRLPRPRPRPNMQPRP | -0.29
RRIRKRPPRLPRPRPRPYPLPRP | -0.095
RRIRQRPPRLPRPRPRPCLIPRP | -0.0017
RRIRPRPPRLPRPRPRPRLTPRP | 0.293
RRIRVRPPRLPRPRPRPGYHPRP | -0.364
RRIRERPPRLPRPRPRPQHQPRP | -0.15
RRIRYRPPRLPRPRPRPWFTPRP | -0.165
RRIRVRPPRLPRPRPRPDEYPRP | 0.0327
RRIRCRPPRLPRPRPRPMGYPRP | -0.0984
RRIRQRPPRLPRPRPRPIAIPRP | 0.00329
